Measured values taken from patent publication US20200071775A1.

Biological target: potato virus Y (PVY)
Assay: sandwich ELISA, PVY captured by PVY capture antibody (Agdia), phage at 3 µg/ml, anti-M13 HRP detection

“M13KO7 bacteriophage (from UniProt P69168 19-424; P69530 1-112; P69541 24-73)” gave an improved sensitivity compared to the existing antibody (PVY detection antibody, Agdia) of 25%.
